Results: the RNAGym collection of RNA variant scans (doi:10.7554/elife.90254)

B1: LINE1-full (parent)
chain: UACGUAGGUGGUUUUCCCCUGAUAGUGCUAAGGGGGCCUGGAAGUUUGGACUGGGCAGAGCUCAACACAGCGUGGCAAAGUGGCUGUGGCUAGACUGCCUCUCUGGAUUCCUCGUCACUCAGCAGGGCAUCUCUGAGAGAAAUGCC

Variants of: B1
Test: self-cleavage, relative activity (ratio to wild type); higher = more cleavage; in vitro, sequencing; the parent is a self-cleaving ribozyme
A22U A140G showed a self-cleavage of 0.71. U46G U112A gave a self-cleavage of 1.47. In the case of A24U U91C, the self-cleavage is reported as 0.45. U45C A136G showed a self-cleavage of 1.5. With U47A G125A the self-cleavage was 1.11. Variant U14A U143C has a self-cleavage of 1. For A22U G83A, the self-cleavage was 0.82. For U47C A94U, the self-cleavage was 0.52. For C116U A124C, the self-cleavage was 1.6. G4A U100C showed a self-cleavage of 1.21. In the case of G58U U143C, the self-cleavage is reported as 0.07. Variant A79U G89U has a self-cleavage of 0.03. For U12G C19U, the self-cleavage was 1.09. In the case of A24U U45C, the self-cleavage is reported as 1.19. U87C A124G showed a self-cleavage of 0.11. C38A G55C showed a self-cleavage of 0.07. U20C G126A gave a self-cleavage of 1.8. With U23A U115C the self-cleavage was 1.18. For U29C A59U, the self-cleavage was 1.13. In the case of U96G U132C, the self-cleavage is reported as 0.16. For G27U U134A, the self-cleavage was 1.29. A65G U119C gave a self-cleavage of 0.04. For U14C U45C, the self-cleavage was 1.21. A77U U85A showed a self-cleavage of 0.07. In the case of A22G U119C, the self-cleavage is reported as 1.43. U20A U81C gave a self-cleavage of 0.84. Variant U81C U102C has a self-cleavage of 0.72. G89A U108C gave a self-cleavage of 0.04. For A77U A141C, the self-cleavage was 1.32. Variant G126U U143C has a self-cleavage of 1.33. U73A U112G gave a self-cleavage of 1.53. With G34U A67G the self-cleavage was 0.54. A64G C84U showed a self-cleavage of 0.1. C61A A94G gave a self-cleavage of 0.04. With G40U G58A the self-cleavage was 0.02. U20C U23C showed a self-cleavage of 1.2. Work on U81A U119C yielded a self-cleavage of 2.53. A65G A69U showed a self-cleavage of 0.07. Variant U46C G93A has a self-cleavage of 0.07. U91C A129G showed a self-cleavage of 0.47. Variant C71U A138G has a self-cleavage of 1.21. U14C A31U gave a self-cleavage of 1.11. U85C U119A gave a self-cleavage of 0.25. Work on A2U A129U yielded a self-cleavage of 0.75. With A124G U134A the self-cleavage was 0.39. Variant U46G A79U has a self-cleavage of 2.15. Variant A31G A77U has a self-cleavage of 0.86. With G32A C101U the self-cleavage was 0.95. Work on A117G U132C yielded a self-cleavage of 1.8. U14C G55C showed a self-cleavage of 0.09. A65G U104A gave a self-cleavage of 0.05. Variant U39A A141G has a self-cleavage of 1.55. U14C C146U gave a self-cleavage of 1.32. Work on G60A U73C yielded a self-cleavage of 0.02. For A94G A124G, the self-cleavage was 0.06. For U14C U115C, the self-cleavage was 1.31. U29C U104C showed a self-cleavage of 1. Work on U104A A136G yielded a self-cleavage of 1.39. For U47C U102A, the self-cleavage was 1.84. U5G A138G showed a self-cleavage of 0.2. Work on U109C A121G yielded a self-cleavage of 1.58. U20G U73G gave a self-cleavage of 0.49. U9A C90U showed a self-cleavage of 0. In the case of U26C U109C, the self-cleavage is reported as 1.74. With A2C A57U the self-cleavage was 0.11. U26A A43G showed a self-cleavage of 0.97. A30G A42G showed a self-cleavage of 0.9. Variant A79G A142G has a self-cleavage of 1.12. In the case of A57G G75A, the self-cleavage is reported as 0.73. U14A A43G gave a self-cleavage of 0.43. U1C U39A showed a self-cleavage of 0.75. In the case of A124U A140G, the self-cleavage is reported as 1.5. Work on U9A U85A yielded a self-cleavage of 0.09. In the case of G35C U62C, the self-cleavage is reported as 0.06. Work on U23A U45C yielded a self-cleavage of 0.71. Variant A59U A78U has a self-cleavage of 1.43. U104A C118U gave a self-cleavage of 0.84. Variant G10A A22C has a self-cleavage of 1.54. Variant C3U A50G has a self-cleavage of 0.33. Variant A67C C71A has a self-cleavage of 0.02. C37U A129U showed a self-cleavage of 0.45. G80A showed a self-cleavage of 1.93. Work on U23A A59G yielded a self-cleavage of 0.24. In the case of A43U U104A, the self-cleavage is reported as 0.98. In the case of A64U A141C, the self-cleavage is reported as 0.46. For C38A A129G, the self-cleavage was 1.46. Work on C19U C123U yielded a self-cleavage of 1.58. For A24U G80C, the self-cleavage was 1.41. U29C U81A gave a self-cleavage of 1.3. U102C C131U showed a self-cleavage of 0.87. With C3U G72A the self-cleavage was 0.05. U47A C84U showed a self-cleavage of 0.09. Variant G106C has a self-cleavage of 1.37. For A2U U115A, the self-cleavage was 0.77. Variant A43G U73C has a self-cleavage of 1.3. U104A C123U gave a self-cleavage of 1.51. U46C A138C showed a self-cleavage of 0. With U104C G114A the self-cleavage was 1.59. With U13C U112G the self-cleavage was 1.13. In the case of G34A A78G, the self-cleavage is reported as 1.27. With A50G G54A the self-cleavage was 0.16. Variant U26A U73C has a self-cleavage of 1.15. In the case of U1C A24U, the self-cleavage is reported as 1.2. Variant C120A A142G has a self-cleavage of 0.91. In the case of A57G A124G, the self-cleavage is reported as 0.41. A64G U130A gave a self-cleavage of 0.28. With G125U U132C the self-cleavage was 1.47. In the case of A24G A77C, the self-cleavage is reported as 2.04. In the case of A2U U73C, the self-cleavage is reported as 0.56. Work on U100A C133U yielded a self-cleavage of 0.54. C90U A136G showed a self-cleavage of 0.05. A69G A141G showed a self-cleavage of 0.44. For U5C U15A, the self-cleavage was 0.63. Variant U29G C113U has a self-cleavage of 0.66. A24G C116U showed a self-cleavage of 0.65. For C38U A141G, the self-cleavage was 0.84. U15C A77C showed a self-cleavage of 0.77. Work on U47C U130C yielded a self-cleavage of 1.63. Work on A64G U143A yielded a self-cleavage of 0.24. U1C A124U gave a self-cleavage of 1.07. U39A U102C showed a self-cleavage of 1.72. With U13A U26C the self-cleavage was 1.19. U46G A69G gave a self-cleavage of 0. For G114A A121G, the self-cleavage was 1.32. Variant C19U G105U has a self-cleavage of 1.55. With U81C U87C the self-cleavage was 0.4. In the case of A142G G144A, the self-cleavage is reported as 1.44. For U23A U73C, the self-cleavage was 1.24. With U15C C66U the self-cleavage was 0.04. For G83A U112C, the self-cleavage was 0.54. Work on A30C A69G yielded a self-cleavage of 0. With U23C G114C the self-cleavage was 2.07. U12G A92G gave a self-cleavage of 0.21. G125A A129C showed a self-cleavage of 1.36. In the case of G8C A50G, the self-cleavage is reported as 1.14. A107U U109A showed a self-cleavage of 1.98. With U26A A117G the self-cleavage was 1.11. C18A A77U showed a self-cleavage of 0.97. With A121G the self-cleavage was 1.56. For G32C U104G, the self-cleavage was 1.26. G35U A141G showed a self-cleavage of 1.09. In the case of U87C A140G, the self-cleavage is reported as 0.13. Work on U14C G74A yielded a self-cleavage of 0.96. A59U U91C gave a self-cleavage of 0.34. U87A A107G showed a self-cleavage of 0.1. U62C G97A showed a self-cleavage of 0.03. For U5C G60A, the self-cleavage was 0.08. Work on U45G C120U yielded a self-cleavage of 1.49. With U20A G25A the self-cleavage was 0.37. In the case of C37U C68A, the self-cleavage is reported as 0.03. Variant A64C A124U has a self-cleavage of 0.27. With U12C A107U the self-cleavage was 0.66. Variant A43G U109A has a self-cleavage of 1.46. In the case of G8A U134C, the self-cleavage is reported as 1.55. With A42G U45G the self-cleavage was 0.1. Work on U5C A140U yielded a self-cleavage of 0.86. For A65G G74A, the self-cleavage was 0.01. Work on A59C C146U yielded a self-cleavage of 1.23. Work on G88C yielded a self-cleavage of 0.11. C37G U134C showed a self-cleavage of 0.66. A94G U132C gave a self-cleavage of 0.34. Work on G7U U73C yielded a self-cleavage of 1.55. With A69U A79U the self-cleavage was 0.08. Variant U23C G54A has a self-cleavage of 0.51. Work on U96C A121U yielded a self-cleavage of 0.13. In the case of G8A U143C, the self-cleavage is reported as 1.45. U5C C128U gave a self-cleavage of 1.53.
